Biological target: beta2-microglobulin, native monomer (UniProt P61769)
Assay: SPR
Conditions: at 0.5 uM RNA; 317 nM at 0.1 uM RNA; TMGA buffer pH 3.6

Chain of beta2-microglobulin, native monomer (P61769 21-119): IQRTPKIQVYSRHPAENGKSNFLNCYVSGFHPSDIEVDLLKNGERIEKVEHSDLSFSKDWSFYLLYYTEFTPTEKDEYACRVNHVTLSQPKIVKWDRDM

With “GGCNUGACANGGCAGGAUAGCCGGNCNANGCGANCNNUNGGNCCNCGANACCCGACNGUGG [N4]” the Kd was 104 nM.

From patent US20060234926
